# Assay results: patent US20250340603A1, “A METHOD FOR MODULATING PLANT ADAPTATION TRAITS” (CRAG (Centre de Recerca en Agrigenòmica), priority 2021, published 2025)
# How the values were obtained:
# [1] = tested on: WT (Col-0) and brl3-2 mutant seedlings; assay: Bikinin sensitivity assay (hypocotyl elongation); type: in vivo, Arabidopsis thaliana; conditions: 6 d, LD
# Description: Chemicals used include; 1 μM BRZ220 (Gift from T. Nakano, RIKEN, Japan) or 50 μM Bikinin (200980, Sigma-Aldrich) for 6-d in control (long days, 22° C.) or high temperature (long days, 28° C.) conditions. Hypocotyl length were measured using the Image J software (v.1.48v) (https-/imagej.nih.gov/ij/).
# For hypocotyl elongation analysis, seedlings were grown in horizontally placed 0.5MS− media plates in controlled growth conditions (Aralab 600; long days 16:8h day/night cycle 60% relative humidity and 50-70 μmol m^−2 s^−1 of cool-white fluorescent light) at 22° C. or 28° C. temperature for 5-7d. Plates were photographed and hypocotyl length were measured using the ImageJ software (v.1.48v) (https:/imagej.nih.gov/ij/). For root growth analysis, seedlings were grown in vertically placed 0.5MS− media plates in controlled growth conditions (Aralab 600; long days 16:8h day/night cycle; 22° C.). MyROOT software (Betegón-Putzé et al., 2019) was used to compare root growth of plants. Lateral roots were manually counted under a stereozoom microscope in 9-d-old seedlings.
# Seedlings were grown in horizontally placed 0.5MS− media supplemented with or without 50 μM Bikinin (200980, Sigma-Aldrich) for 6-d in control (long days, 22° C.) or high temperature (long days, 28° C.) conditions. Hypocotyl length were measured using the Image J software (v.1.48v) (https://imagej.nih.gov/ii/).
# [2] = molecular target: T1, BRL3T1025A, phospho-dead version of the BRL3 kinase domain
# T1 chain: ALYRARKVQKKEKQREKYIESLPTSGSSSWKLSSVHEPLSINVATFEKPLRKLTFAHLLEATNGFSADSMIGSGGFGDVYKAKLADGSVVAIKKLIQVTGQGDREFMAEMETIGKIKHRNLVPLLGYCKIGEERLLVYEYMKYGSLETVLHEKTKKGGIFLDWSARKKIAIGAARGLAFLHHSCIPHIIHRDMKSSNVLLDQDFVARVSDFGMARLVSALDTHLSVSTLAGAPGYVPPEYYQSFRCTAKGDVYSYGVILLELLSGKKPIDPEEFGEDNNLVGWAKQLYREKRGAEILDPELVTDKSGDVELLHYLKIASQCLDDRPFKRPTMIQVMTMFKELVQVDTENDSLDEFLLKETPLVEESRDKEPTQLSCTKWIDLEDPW
# [3] = molecular target: T2, KIN7 kinase domain, GST- or MBP-tagged, from E. coli
# T2 chain: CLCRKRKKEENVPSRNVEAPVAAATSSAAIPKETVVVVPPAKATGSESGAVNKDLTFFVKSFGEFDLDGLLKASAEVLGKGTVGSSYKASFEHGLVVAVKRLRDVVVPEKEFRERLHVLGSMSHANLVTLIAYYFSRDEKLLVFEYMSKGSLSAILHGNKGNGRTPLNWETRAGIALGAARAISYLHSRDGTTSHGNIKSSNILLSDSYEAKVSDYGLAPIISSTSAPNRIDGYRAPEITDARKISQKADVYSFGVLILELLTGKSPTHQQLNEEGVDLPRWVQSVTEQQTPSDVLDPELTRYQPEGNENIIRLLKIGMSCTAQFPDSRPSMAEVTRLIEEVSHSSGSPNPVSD
molecule,measurement,setting,value
O=C(O)CCC(=O)Nc1ccc(Br)cn1 [Bikinin],hypocotyl elongation,"[1]; 50 μM Bikinin in media, WT and brl3-2 mutant, control (22° C.) and high temperature (28° C.)",promote hypocotyl elongation
same,rescue of brl3 conditional phenotypes (hypocotyl elongation) on elevated temperature,"[1]; 50 μM Bikinin, brl3-2 mutant, 28° C.",rescued brl3 conditional phenotypes
"KIN7 kinase domain, GST- or MBP-tagged, from E. coli (protein) CLCRKRKKEENVPSRNVEAPVAAATSSAAIPKETVVVVPPAKATGSESGAVNKDLTFFVKSFGEFDLDGLLKASAEVLGKGTVGSSYKASFEHGLVVAVKRLRDVVVPEKEFRERLHVLGSMSHANLVTLIAYYFSRDEKLLVFEYMSKGSLSAILHGNKGNGRTPLNWETRAGIALGAARAISYLHSRDGTTSHGNIKSSNILLSDSYEAKVSDYGLAPIISSTSAPNRIDGYRAPEITDARKISQKADVYSFGVLILELLTGKSPTHQQLNEEGVDLPRWVQSVTEQQTPSDVLDPELTRYQPEGNENIIRLLKIGMSCTAQFPDSRPSMAEVTRLIEEVSHSSGSPNPVSD","incorporation of 32P into BRL3 kinase (in vitro phosphorylation, autoradiography)",[2],KIN7 is not able to phosphorylate BRL3 domains given that the BRL3 phosphorylation pattern is lost when KIN7 is incubated with the phospho-dead version of BRL3 kinase
"BRL3 kinase domain, GST- or MBP-tagged, from E. coli (protein) ALYRARKVQKKEKQREKYIESLPTSGSSSWKLSSVHEPLSINVATFEKPLRKLTFAHLLEATNGFSADSMIGSGGFGDVYKAKLADGSVVAIKKLIQVTGQGDREFMAEMETIGKIKHRNLVPLLGYCKIGEERLLVYEYMKYGSLETVLHEKTKKGGIFLDWSARKKIAIGAARGLAFLHHSCIPHIIHRDMKSSNVLLDQDFVARVSDFGMARLVSALDTHLSVSTLAGTPGYVPPEYYQSFRCTAKGDVYSYGVILLELLSGKKPIDPEEFGEDNNLVGWAKQLYREKRGAEILDPELVTDKSGDVELLHYLKIASQCLDDRPFKRPTMIQVMTMFKELVQVDTENDSLDEFLLKETPLVEESRDKEPTQLSCTKWIDLEDPW","incorporation of 32P into KIN7 kinase (in vitro phosphorylation, autoradiography)",[3],The image show and autoradiography revealing the incorporation of 32P into KIN7 kinase when incubated with BRL3
"BRL3T1025A, phospho-dead version of the BRL3 kinase domain (protein) ALYRARKVQKKEKQREKYIESLPTSGSSSWKLSSVHEPLSINVATFEKPLRKLTFAHLLEATNGFSADSMIGSGGFGDVYKAKLADGSVVAIKKLIQVTGQGDREFMAEMETIGKIKHRNLVPLLGYCKIGEERLLVYEYMKYGSLETVLHEKTKKGGIFLDWSARKKIAIGAARGLAFLHHSCIPHIIHRDMKSSNVLLDQDFVARVSDFGMARLVSALDTHLSVSTLAGAPGYVPPEYYQSFRCTAKGDVYSYGVILLELLSGKKPIDPEEFGEDNNLVGWAKQLYREKRGAEILDPELVTDKSGDVELLHYLKIASQCLDDRPFKRPTMIQVMTMFKELVQVDTENDSLDEFLLKETPLVEESRDKEPTQLSCTKWIDLEDPW","incorporation of 32P into KIN7 kinase (in vitro phosphorylation, autoradiography)",[3],"The phosphorylation in KIN7 kinase domain is lost when incubated with a phospho-dead version of BRL3, the BRL3T1025A"
